assay: soluble on expression in E. coli; label from the status in PepcDB or PDB records

Sequence | soluble on expression in E. coli
MRTISFFNNKGGVGKTTLSTNVAHYFALQGKRVLYVDCDPQCNATQLMLTEEQTESIYLDGLNDEVAERNSLAKTVYAIFVPLREGESQIAAEITPMRSERFGVDVLPGHPALSQIEDLMSDSWQSALGRQTGPFRRIHWAGQLAHAMERDDRYDVIFFDVGPSLGPFNRTVLLGCDAFVTPTATDLFSFHAFGNLARWFDAWVTQYAEIHEGNMAEWKKYSADVEAKTRPLRLGGFDGEGLRYLGYTTLEYVKRRANGQEQLVGAFERFRGRFAAEAERISNSLSKHSNSTLLGHVPHMHSMPATAQDVHAPIMELSSSDRVRGAQINQRNAYAEKINSVAANVYKALFPNELEHHHHHH | soluble
MRTPLSSVSPQLVQRFHELGFTPSSIRNFLGRPGFAAISRGEPASVLYAMRENEDSDFYPLIATFILHRPVAAEALHRVLGGSLTDQLTETGVLEIVDASKAYLTAKIDIRWLELEDDLFWVFSDTDASMIADHVPGKDHVLGVGAASLSL | not soluble
MRTQNDLDRRLRSFGGRDGQMTTLSVRRLPVENGISGWEAISKRSKPVRRLEGDVTADWLIIGAGFAGLSAARRLTQLHPGETIVVLDASEVGKGTSGRNSGFMIDVPHNLASSEYSSGAIDATRLEMEQNRSAIAFAAAAAEDYGMSRQTFDPAGKINAAATRRGMTLNQNFAASLKNAGEKHTLLDAAQMRALTGSDYYLGGLYTPGAVLIQPADYIREFAAGLSPKVDIFENSPVTALRRENRAWKATTPSGSVTAPKVILGVNGHVDDFGHFRGRLIHIFAYASMTAPFAARDYGSRVSGQDKWALLPADAMGATVRKITSDGQSRIAIRTRYTYETTLDLTKHQLSKMVRAHRRSLDDRFPGLGGIPFEYSWSGRICLSLNHVPAFGEIEEGLFSACCENGLGTVKSTLAGMMAAELATGTTSRHLEQYMDHPAPSRLPPEPFAWLGINSVIRLQELRAGREGLEHHHHHH | not soluble
MRVAFFGTPLWAVPVLDALRKRHQVVLVVSQPDKPQGRGLRPAPSPVARYAEAEGLPLLRPARLREEAFLEALRQAAPEVAVVAAYGKLIPKEALDIPPHGFLNLHPSLLPKYRGAAPVQRALLAGERETGVSIMRLDEGLDTGPLYAVWRTPILPDEDAVALGNRLRDKGVELLLEVLERLPELTPRPQEGEASYAPPLSKEEGRLDFGESAEALYRRHRAVQPWPGSYFFHRGQRVKALRLRPEPGEGEPGVVARVGPEGVVVGTASGLLLLLEVQPEGRRAMPAADWARGYGVAPGTRLGQV | soluble
MRVEDVMVTDVDTIDITASLEDVLRNYVENAKGSSVVVKEGVRVGIVTTWDVLEAIAEGDDLAEVKVWEVMERDLVTISPRATIKEAAEKMVKNVVWRLLVEEDDEIIGVISATDILRAKMAKRY | soluble
MRVLVSGGGTGGHIYPALALIREIKKLNPEARFLYIGTENGLESTIVPKAGIPFQSIVISGFKRKISLDNVKTVMRFLKGVQDSKRYIRRFNPDIVIGTGGYVCGPVVYAAAKLGIPTIVHEQNSVPGVTNKFLSRYVDKVAVCFEAAAEHFPQSKVVMTGNPRASEVMDQNGMKGKRSVGLSLPKKSVLIFGGSRGARPINDAFVEAIEQFGNKSYEILYVTGEVHYDKVMEAVKQKGNPNNVIIKPFIHNMPEVLTGVDLVVSRAGATTLAELTALGKPSVLIPSPYVTNNHQEKNARSVVDKGAAKMLLEKDLTAETLIRDIDEILLDAQTLQNMKLAAGQLGIPDAANKLYEVMNKLVKK | not soluble
MRVRIVGAPSLLVGVISDTHDNLALARRAGEIFARERVEAVIHLGDYVAPFTLAELLGVVGGKAVFYGVFGNNDGERLGLSRVAGGFGASLLDPPATVSIGGRRLLLLHGFGSPENTVELVDALASSGRWDAVLYGHTHKARVERVGGSLVLNPGDGGGSLEKPSAAILDLESMEARLVSLEGAAALEHHHHHH | not soluble
MRVVYTSPRIENLQFLKSEFSNYSVIVLEEPKNDLFHDVLEGKITVDLYVRKISTQFPLYTRKLIEMLKELKSREIMQVEPYLEEVERLKNFSEGDERVREMEKRVNALYIDYTESFLKSDFDEIVEKVLRFSEAEAERIMLRDEMRAKALDDLDEAVIEAGMNHIKLAEILDAESVRIPEIIAERLGTRYLENPGEKLLKAFIFEEDDDLRLLAARNLIFTSLLEKREMEPDFDGDYPHFTHEQKLVRFVDKLDYEKCRKLFYRFWSPR | not soluble
MRWTKEELDRYHRQMILPQVGPEGQERLKRASVVVVGAGGLGVPVLQYLVAARVGRVGVVEMDRVEVSDLHRQVLYTTEDVGEPKALVAQKRLQALNPLVRVEAYPVRLTSENALEILRPYDLVVDASDNFPTRYLVNDAAVLLGKPLVFGAIYQFDGQGTVFHHPTLHGEMGPCYRCLFPKPPPPGAVPSCAEAGVFGVLPAVVGSLMAAEALKVLLGIGKPLAGHLLLYDALEAGFRKLTVRRNPRCPVCGDEPTQRELVDYEAFCGLG | soluble
MRYRDFDIFKFWFRAVEKFAPWVHKIYLITDNQVPDWLDTRNSKLTVIDHRDIMDADWLPTFNSNAIELNAYKIKNLSEKFVLFNDDTILNSYVDKVDFFDENYPKDIYVESPIMATKGSVDHIMVNNVEIINEFFEKKNFYKKNLTKVFNPKIGIKLLRTLALLPSSKFAGFWNSHLPISYNKTTFETVWSNCEGKLVATSKNKFRTAYDVSHWLMRYWQLASGNYHLQNNIGKVYDLSSQNIDEVVTQLQRSHSKIICLNDNDELDDYEGVKGKLVTTLNEKFSEKSKFELLEHHHHHH | not soluble
MRYSDGRYEADIDITVEEWKSMLQNPKIFGPKYLDMILKWYYEIDHRATSQAIMAKYPSELKGTPYNGYVIGLTNRIIKYLNRFEVIGTQGNESKFIVPFEGWYEDYKEGNHFVWKVRDELVQAIEELGLVDEKKFPSEEEELKSYSIENRKDGKIIMRYTTQYERNPINRRNAIRIHGTVCQGCGFDFEKVYGEIGKDYIEVHHIKPLYEGGGSVPINAETDLICVCANCHRMIHRRKDKVLSLKELQKLLLANKNLEHHHHHH | soluble
MSAAPLVRAVRWYQRVLSPRKPAPTCRFSPTCSEYAAQALDRHGALKGGWLALWRVLRCNPLVPGGFDPV | soluble
MSAASTTSTPAAAAVAPQQPESLYRVVQTLGEGAFGEVLLIVNTKNPEVAAAMKKINIANKSKDFIDNIRKEYLLQKRVSAVGHDNVIRMIGMRNDPQFYYLFLEYADGGELFDKIEPDCGMSPVFAQFYFKQLICGLKFIHDNDVVHRDIKPENLLLTGTHVLKISDFGMATLYRNKGEERLLDLSCGTIPYAAPELCAGKKYRGPPVDVWSSGIVLIAMLTGELPWDRASDASQSYMGWISNTSLDERPWKKIDVRALCMLRKIVTDKTDKRATIEQIQADPWYQHNFGQVETPNGRPLKRARNNDENITCTQQAECSAKRRHLETPNEKSTLAERQNASFSQPTKTEDLLLTQHIDMSQTNSNLLQRMVCRMTRFCVVTDIRSTYQKVARASEHAGFGVRETDDYRLLVTWREVSMMVSLYTMGDIPDKPRVMVDFRRSRGDGIQFKKMFMDVRNRMHEWICTDGNNWLANLGYVPRNPQIVNGGGVNVEHSASSINVDV | not soluble
MSAFTPASEVLLRHSDDFEQSRILFAGDLQDDLPARLDTAASRAHTQQFHHWQVLSRQMGDNARFSLVATADDVADCDTLIYYWPKNKPEAQFQLMNLLSLLPVGTDIFVVGENRSGVRSAEQMLADYAPLNKVDSARRCGLYFGRLEKQPVFDAEKFWGEYSVDGLTVKTLPGVFSRDGLDVGSQLLLSTLTPHTKGKVLDVGCGAGVLSVAFARHSPKIRLTLCDVSAPAVEASRATLAANGVEGEVFASNVFSEVKGRFDMIISNPPFHDGMQTSLDAAQTLIRGAVRHLNSGGELRIVANAFLPYPDVLDETFGFHEVIAQTGRFKVYRAIMTRQAKKG | soluble
MSAITITEAAQAYLAELLEKQSTPGIGIRIFITQPGTQYAETCIAYCKPGEEKVEDTAIALKDFTAWIDAVSEPFLEDAVVDYATDRMGGQLTIKAPNAKVPMVNEDSPITERINYYLQTEINPGLASHGGQVSLVDVVEDNIAVLRFGGGCQGCGMVDMTLKDGVEKTLIERIPELKGVRDVTDHSNKENAYY | not soluble
MSALFEPYTLKDVTLRNRIAIPPMSQYMAEDGMINDWHHVHLAGLARGGAGLLVVEATAVAPEGRITPGCAGIWSDAHAQAFVPVVQAIKAAGSVPGIQIAHAGRKASANRPWEGDDHIAADDTRGWETIAPSAIAFGAHLPKVPREMTLDDIARVKQDFVDAARRARDAGFEWIELHFAHGYLGQSFFSEHSNKRTDAYGGSFDNRSRFLLETLAAVREVWPENLPLTARFGVLEYDGRDEQTLEESIELARRFKAGGLDLLSVSVGFTIPDTNIPWGPAFMGPIAERVRREAKLPVTSAWGFGTPQLAEAALQANQLDLVSVGRAHLADPHWAYFAAKELGVEKASWTLPAPYAHWLERYR | soluble
MSANFTDKNGRQSKGVLLLRTLAMPSDTNANGDIFGGWIMSQMDMGGAILAKEIAHGRVVTVAVESMNFIKPISVGDVVCCYGQCLKVGRSSIKIKVEVWVKKVASEPIGERYCVTDAVFTFVAVDNNGRSRTIPRENNQELEKALALISEQPLLEHHHHHH | not soluble
MSANLVTPKWGYIGKMPAKGDFVKDGISPEFANRWHDWQQAVIAVSKEQLGDTWNDYFLTAPVWHFALDVSYMDDATYIGSMIPSVDACGRYFFFTVVRAVKGKAAQYWAQSGWTEDSQTLALSVLDDEFVFDVWHRSMQEKCELVSEVSICNEEMALLYQSPISTVFSFSTEAKQNTLLNHLIESQQRKPCFWWTEGSTHIESCMFVSTGLPSIGQFSAMLDGRWQMWSW | not soluble
MSAPNPKAFPLADAALTQQILDVVQQAANLRQLKKGANEATKTLNRGISEFIIMAADCEPIEILLHLPLLCEDKNVPYVFVPSRVALGRACGVSRPVIAASITTNDASAIKTQIYAVKDKIETLLI | soluble
MSARVRPFLMFQGVQAEAAMNFYLSLFDDAEILQIQRYGAEGPGPEGSVLKALFRLGDQSVHCIDSHVRHAFDFTPAFSFFVDCESNAQIERLAEALSDGGKALMPLGDYGFSQRFAWLADRFGVSWQLNLA | soluble
MSASGLLVEKSGPLSLIQDFGRFGLAHIGITQGGPVDDYAYSWANHLLGNRVNCSAIEITLGNACFIALQDCHLAICGGDLNASVDGHPIANWSDFSIKKGQKLQFGMAKNGLRAYLAVKGGFNVPEHLGSSSTVLREALGGLEANGNALKAGDVLPFDAHSLPNHKPRIMTFRFKPDYNLPITLRVIEGYQCDDFSVEAKEKFYSGSFAISPDSNRMGYRLEGNTVKPPYDGILSEGIALGAIQIPHDGNPIVLLNDHQTIGGYPKLGCVARIDLPRLAQAKPGQKVRFVKGDRQGLQDVWCQWAQFFGY | not soluble
MSASLAILTIGVVPMSEVLPLLTEYIDEQHITHHSLLGKMSREDVMADYAVEPGDDPLLTLLNDNQIAHVSRQKVERDLQSVVEVLDNQGYDVIILMSTAAIKSMAARNSILLEPLRIIPPLVASIVDGHQVGVIVPVAELLAAQEKKWQVLQMPPVYSLANPVHGSEQQLIDAGQALLDQGADVIMLDCLGFHQRHRDILQQALDVPVLLSNVLIARLASELLV | not soluble
MSCPVIELTQQLIRRPSLSPDDAGCQALLIERLQAIGFTVERMDFADTQNFWAWRGQGETLAFAGHTDVVPPGDADRWINPPFEPTIRDGMLFGRGAADMKGSLAAMVVAAERFVAQHPNHTGRLAFLITSDEEASAHNGTVKVVEALMARNERLDYCLVGEPSSIEVVGDVVKNGRRGSLTCNLTIHGVQGHVAYPHLADNPVHRAAPFLNELVAIEWDQGNEFFPATSMQIANIQAGTGSNNVIPGELFVQFNFRFSTELTDEMIKAQVLALLEKHQLRYTVDWWLSGQPFLTARGKLVDAVVNAVEHYNEIKPQLLTTGGTSDGRFIARMGAQVVELGPVNATIHKINECVNAADLQLLARMYQRIMEQLVA | soluble

Source: the DeepSol protein solubility set
